Where two headings read alike, the source gives them in different places.
B1: KaiC (natural protein)
chain: MTSAEMTSPNNNSEHQAIAKMRTMIEGFDDISHGGLPIGRSTLVSGTSGTGKTLFSIQFLYNGIIEFDEPGVFVTFEETPQDIIKNARSFGWDLAKLVDEGKLFILDASPDPEGQEVVGGFDLSALIERINYAIQKYRARRVSIDSVTSVFQQYDASSVVRRELFRLVARLKQIGATTVMTTERIEEYGPIARYGVEEFVSDNVVILRNVLEGERRRRTLEILKLRGTSHMKGEYPFTITDHGINIFPLGAMRLTQRSSNVRVSSGVVRLDEMCGGGFFKDSIILATGATGTGKTLLVSRFVENACANKERAILFAYEESRAQLLRNAYSWGMDFEEMERQNLLKIVCAYPESAGLEDHLQIIKSEINDFKPARIAIDSLSALARGVSNNAFRQFVIGVTGYAKQEEITGLFTNTSDQFMGAHSITDSHISTITDTIILLQYVEIRGEMSRAINVFKMRGSWHDKAIREFMISDKGPDIKDSFRNFERIISGSPTRITVDEKSELSRIVRGVQEKGPES
B2: KaiCDT (phosphorylation mimic KaiC) (natural protein)
chain: MTSAEMTSPNNNSEHQAIAKMRTMIEGFDDISHGGLPIGRSTLVSGTSGTGKTLFSIQFLYNGIIEFDEPGVFVTFEETPQDIIKNARSFGWDLAKLVDEGKLFILDASPDPEGQEVVGGFDLSALIERINYAIQKYRARRVSIDSVTSVFQQYDASSVVRRELFRLVARLKQIGATTVMTTERIEEYGPIARYGVEEFVSDNVVILRNVLEGERRRRTLEILKLRGTSHMKGEYPFTITDHGINIFPLGAMRLTQRSSNVRVSSGVVRLDEMCGGGFFKDSIILATGATGTGKTLLVSRFVENACANKERAILFAYEESRAQLLRNAYSWGMDFEEMERQNLLKIVCAYPESAGLEDHLQIIKSEINDFKPARIAIDSLSALARGVSNNAFRQFVIGVTGYAKQEEITGLFTNTSDQFMGAHSITDSHIDTITDTIILLQYVEIRGEMSRAINVFKMRGSWHDKAIREFMISDKGPDIKDSFRNFERIISGSPTRITVDEKSELSRIVRGVQEKGPES
B3: KaiA (natural protein)
chain: MLSQIAICIWVESTAILQDCQRALSADRYQLQVCESGEMLLEYAQTHRDQIDCLILVAANPSFRAVVQQLCFEGVVVPAIVVGDRDSEDPDEPAKEQLYHSAELHLGIHQLEQLPYQVDAALAEFLRLAPVETMADHIMLMGANHDPELSSQQRDLAQRLQERLGYLGVYYKRDPDRFLRNLPAYESQKLHQAMQTSYREIVLSYFSPNSNLNQSIDNFVNMAFFADVPVTKVVEIHMELMDEFAKKLRVEGRSEDILLDYRLTLIDVIAHLCEMYRRSIPRET

Experiments:
Assay in all cases: AUC
AUC [1] = target: the molecule itself
AUC [2] = target: the molecule itself; remark: listed apart in the source
KaiA = target: B3
[3] = target: B2
KaiC = target: B1

Row | Binder | stoichiometry N (AUC [1]) | stoichiometry N (AUC [2]) | further results
1 | B1 | 6 | – | –
2 | B2 | – | – | binding result (AUC [2]): binds
3 | KaiCAA (dephosphorylation mimic KaiC) (natural protein) MTSAEMTSPNNNSEHQAIAKMRTMIEGFDDISHGGLPIGRSTLVSGTSGTGKTLFSIQFLYNGIIEFDEPGVFVTFEETPQDIIKNARSFGWDLAKLVDEGKLFILDASPDPEGQEVVGGFDLSALIERINYAIQKYRARRVSIDSVTSVFQQYDASSVVRRELFRLVARLKQIGATTVMTTERIEEYGPIARYGVEEFVSDNVVILRNVLEGERRRRTLEILKLRGTSHMKGEYPFTITDHGINIFPLGAMRLTQRSSNVRVSSGVVRLDEMCGGGFFKDSIILATGATGTGKTLLVSRFVENACANKERAILFAYEESRAQLLRNAYSWGMDFEEMERQNLLKIVCAYPESAGLEDHLQIIKSEINDFKPARIAIDSLSALARGVSNNAFRQFVIGVTGYAKQEEITGLFTNTSDQFMGAHSITDSHIAAITDTIILLQYVEIRGEMSRAINVFKMRGSWHDKAIREFMISDKGPDIKDSFRNFERIISGSPTRITVDEKSELSRIVRGVQEKGPES | 6 | – | binding result (KaiA): binds
4 | B3 | – | 2 | –
5 | KaiB (natural protein) MSPRKTYILKLYVAGNTPNSVRALKTLKNILEVEFQGVYALKVIDVLKNPQLAEEDKILATPTLAKVLPLPVRRIIGDLSDREKVLIGLDLLYGELQDSDDF | – | 4 | binding result [3]: binds; binding result (KaiC): binds

— publication doi:10.1101/2022.08.26.505376 (bioRxiv, 2022)
